According to US20240141039A1 (AGENUS, published 2024):

T1: full-length isoform 2 ECD of human CD96 with a C89S mutation (His-tagged) (human, UniProt P40200 22-519)
T1 construct: also called His-tagged isoform 2 of human CD96 with a C89S mutation; human CD96 extracellular domain isoform 2 C89S
T1 sequence: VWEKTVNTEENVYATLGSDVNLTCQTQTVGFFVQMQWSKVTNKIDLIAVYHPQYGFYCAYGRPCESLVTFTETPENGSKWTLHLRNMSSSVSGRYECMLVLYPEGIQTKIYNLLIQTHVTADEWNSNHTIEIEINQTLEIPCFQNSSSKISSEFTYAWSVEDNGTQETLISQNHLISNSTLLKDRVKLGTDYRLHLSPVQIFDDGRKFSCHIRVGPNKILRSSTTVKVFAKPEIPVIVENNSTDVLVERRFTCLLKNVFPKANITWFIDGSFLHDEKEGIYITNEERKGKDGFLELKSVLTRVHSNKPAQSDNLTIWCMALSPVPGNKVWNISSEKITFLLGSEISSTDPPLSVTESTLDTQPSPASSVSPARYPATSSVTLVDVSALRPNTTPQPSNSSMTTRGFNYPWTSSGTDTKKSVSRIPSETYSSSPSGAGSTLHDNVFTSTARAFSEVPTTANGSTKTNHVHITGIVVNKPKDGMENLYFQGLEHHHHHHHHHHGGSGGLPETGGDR

T2: wild type full-length human TIGIT expressed on cells (human, UniProt Q495A1 22-244)
T2 construct: whole, on cells; also called human TIGIT-CHO; human TIGIT CHO cells
T2 sequence (looked up): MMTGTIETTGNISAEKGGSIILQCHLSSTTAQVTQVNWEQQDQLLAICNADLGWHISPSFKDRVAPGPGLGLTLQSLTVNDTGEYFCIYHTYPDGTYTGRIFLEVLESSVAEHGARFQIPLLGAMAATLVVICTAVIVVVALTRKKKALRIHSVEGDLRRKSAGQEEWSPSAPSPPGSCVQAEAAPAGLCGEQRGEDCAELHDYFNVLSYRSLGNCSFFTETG

B1: anti-TIGIT×CD96 multispecific molecule BA123 (bispecific antibody, human IgG1, kappa, lambda)
heavy 1: QVQLVQSGAEVKKPGASVKVSCKASGYTFTSYGISWVRQAPGQGLEWMGWISAYNANTNYAQKLQGRVTMTTDTSTSTAYMELRSLRSDDTAVYYCARSAGVLGGMDVWGRGTLVTVSSASTKGPSVFPLAPSSKSTSGGTAALGCLVKDYFPEPVTVSWNSGALTSGVHTFPAVLQSSGLYSLSSVVTVPSSSLGTQTYICNVNHKPSNTKVDKRVEPKSCDKTHTCPPCPAPELLGGPDVFLFPPKPKDTLMISRTPEVTCVVVDVSHEDPEVKFNWYVDGVEVHNAKTKPREEQYNSTYRVVSVLTVLHQDWLNGKEYKCKVSNKALPAPIEKTISKAKGQPREPQVYTLPPSREEMTKNQVSLSCAVKGFYPSDIAVEWESNGQPENNYKTTPPVLDSDGSFFLVSKLTVDKSRWQQGNVFSCSVMHEALHNHYTQKSLSLSPG
light 1: not shown
heavy 2: EVQLVQSGAEVKKPGSSVKVSCKASGYTFASYGISWVRQAPGQGLEWMGGITPFFNRVDVAEKFQGRVTITADKSTSTAYIELSSLRSEDTAVYYCARDLRRGGVGDAFDIWGRGTLVTVSSASTKGPSVFPLAPSSKSTSGGTAALGCLVKDYFPEPVTVSWNSGALTSGVHTFPAVLQSSGLYSLSSVVTVPSSSLGTQTYICNVNHKPSNTKVDKRVEPKSCDKTHTCPPCPAPELLGGPDVFLFPPKPKDTLMISRTPEVTCVVVDVSHEDPEVKFNWYVDGVEVHNAKTKPREEQYNSTYRVVSVLTVLHQDWLNGKEYKCKVSNKALPLPEEKTISKAKGQPREPQVYTLPPSREEMTKNQVSLWCLVKGFYPSDIAVEWESNGQPENNYKTTPPVLDSDGSFFLYSKLTVDKSRWQQGNVFSCSVMHEALHNHYTQKSLSLSPG
light 2: QSALTQPRSVSGSPGQSVTISCTGTSPDVGSHAYRSWYQQHPGKAPKLMIYEVSYRPSGVSNRFSGSKSGNTASLTISGLQAEDEADYYCSSYPPSSATVFGAGTKLTVLGQPKAAPSVTLFPPSSEELQANKATLVCLISDFYPGAVTVAWKADSSPVKAGVETTTPSKQSNNKYAASSYLSLTPEQWKSHRSYSCQVTHEGSTVEKTVAPTEC
notes: copies: 1 + 1 + 1 + 1
B2: anti-TIGIT×CD96 multispecific molecule BA127 (bispecific antibody, human IgG1, kappa, lambda)
heavy 1: QVQLVQSGAEVKKPGASVKVSCKASGYTFTTYALHWVRQAPGQRLEWMGWINTGSGDTKYSQKFQGRVTITRDTSASTAYMELSSLRSEDTAVYYCARSLGVYYGMDVWGQGTLVTVSSASTKGPSVFPLAPSSKSTSGGTAALGCLVKDYFPEPVTVSWNSGALTSGVHTFPAVLQSSGLYSLSSVVTVPSSSLGTQTYICNVNHKPSNTKVDKRVEPKSCDKTHTCPPCPAPELLGGPDVFLFPPKPKDTLMISRTPEVTCVVVDVSHEDPEVKFNWYVDGVEVHNAKTKPREEQYNSTYRVVSVLTVLHQDWLNGKEYKCKVSNKALPAPIEKTISKAKGQPREPQVYTLPPSREEMTKNQVSLSCAVKGFYPSDIAVEWESNGQPENNYKTTPPVLDSDGSFFLVSKLTVDKSRWQQGNVFSCSVMHEALHNHYTQKSLSLSPG
light 1: not shown
heavy 2: B1 heavy 2
light 2: B1 light 2
notes: Anti-CD96 arm = BA139, anti-TIGIT arm = BA150; copies: 1 + 1 + 1 + 1
B3: anti-TIGIT monospecific antibody BA148 (antibody, human IgG1, lambda)
heavy: EVQLVQSGAEVKKPGSSVKVSCKASGYTFASYGISWVRQAPGQGLEWMGGITPFFNRVDVAEKFQGRVTITADKSTSTAYIELSSLRSEDTAVYYCARDLRRGGVGDAFDIWGRGTLVTVSSASTKGPSVFPLAPSSKSTSGGTAALGCLVKDYFPEPVTVSWNSGALTSGVHTFPAVLQSSGLYSLSSVVTVPSSSLGTQTYICNVNHKPSNTKVDKRVEPKSCDKTHTCPPCPAPELLGGPDVFLFPPKPKDTLMISRTPEVTCVVVDVSHEDPEVKFNWYVDGVEVHNAKTKPREEQYNSTYRVVSVLTVLHQDWLNGKEYKCKVSNKALPLPEEKTISKAKGQPREPQVYTLPPSREEMTKNQVSLTCLVKGFYPSDIAVEWESNGQPENNYKTTPPVLDSDGSFFLYSKLTVDKSRWQQGNVFSCSVMHEALHNHYTQKSLSLSPGK
light: B1 light 2
notes: IgG1; also called anti-TIGIT IgG1 antibody BA148

Legend:
[1] = target: T3, wild type full-length cynomolgus monkey TIGIT expressed on CHO cells (cynomolgus monkey, UniProt A0A7N9I9V4 89-312); test: flow cytometry, cynomolgus TIGIT CHO cells, geomean of 2 experiments
T3 construct: whole, on cells; also called cynomolgus TIGIT-CHO cells
T3 sequence (A0A7N9I9V4 entry or part of it): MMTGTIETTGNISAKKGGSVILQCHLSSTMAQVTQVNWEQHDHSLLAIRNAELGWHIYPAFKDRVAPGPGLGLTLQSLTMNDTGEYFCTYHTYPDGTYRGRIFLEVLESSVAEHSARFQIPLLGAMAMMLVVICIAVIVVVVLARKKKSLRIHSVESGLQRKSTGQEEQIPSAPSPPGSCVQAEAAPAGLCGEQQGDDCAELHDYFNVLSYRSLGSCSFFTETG

[2] = target: T4, full-length human FcγRIIIa variant V/V expressed on CHO cells (human, UniProt P08637 17-254); test: flow cytometry, human FcγRIIIa (V/V) CHO cells, geomean of 2 experiments
T4 construct: whole, on cells; also called human FcγRIIIa-CHO (variant V/V); human FcγRIIIa (V/V) CHO cells
T4 sequence (P08637 other isoform, or with tags, fused parts or gaps mutant limits assumed): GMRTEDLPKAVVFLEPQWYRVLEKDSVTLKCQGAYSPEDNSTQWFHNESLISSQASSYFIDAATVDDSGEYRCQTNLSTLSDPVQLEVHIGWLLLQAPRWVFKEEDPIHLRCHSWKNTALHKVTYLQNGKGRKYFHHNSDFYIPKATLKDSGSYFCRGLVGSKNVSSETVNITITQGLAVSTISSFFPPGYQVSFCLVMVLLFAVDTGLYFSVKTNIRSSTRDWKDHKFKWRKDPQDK
Method: The ability of anti-TIGIT×CD96 multispecific molecules to bind to variant V/V or variant F/F of human FcγRIIIa expressed on the surface of CHO cells was assessed. Briefly, CHO cells were transfected with a vector encoding full-length human FcγRIIIa (human FcγRIIIa-CHO) variant V/V or F/F, and clones stably expressing FcγRIIIa (variant V/V or variant F/F) were selected.
For the antibody binding assay, a frozen aliquot of human FcγRIIIa-CHO (variant V/V or variant F/F) cells was thawed at 37° C. and then transferred to a tube containing DPBS supplemented with 0.5% Bovine Serum Albumin and 0.05% Sodium Azide (FACS Buffer). Cells were centrifuged at 300 g for five minutes. The supernatant was discarded, and cells resuspended in FACS buffer were seeded in a 96-well U-bottom tissue culture plate at a density of 2×10⁵ cells per well in 50 μL. In a separate microplate, a 2× concentrated intermediate stock of each multispecific molecule was prepared. […] After a 30-minute incubation on ice, the cells were washed twice with cold FACS Buffer, and the cells were analyzed by flow cytometry (BD LSR Fortessa Flow Cytometer). The data were analyzed using the FlowJo software by sequentially gating the FSC-A vs. SSC-A, and SSC-H vs. SSC-A. Mean fluorescence intensity (MFI) values for PE were calculated, and the data were plotted by GraphPad Prism software.

[3] = target: T5, full-length ECD of cynomolgus monkey TIGIT (His-tagged) (cynomolgus monkey); test: SPR Biacore T200, Protein A capture, 1:1 model, experiment #1
T5 construct: also called His-tagged cynomolgus monkey TIGIT; cyno TIGIT extracellular domain
Method: (§1) Briefly, surface plasmon resonance experiments were performed using a Biacore T200 instrument, and the association rate (kₐ), dissociation rate (kd), and dissociation constant (KD) were calculated from each experiment using a 1:1 binding model with Biacore T200 Evaluation Software.
(§2) Multispecific molecules were captured using a 30-sec injection at a flow rate of 10 μl/min to reach about 350 resonance units (RUs). […] The sensor chip was regenerated between cycles with two 30-sec injections of 10 mM glycine, pH 1.5. Sensorgrams were evaluated and fit to a simple Langmuir 1:1 interaction model using the global data analysis option of BIAevaluation 3.0 software. Data quality was verified by visually inspecting deviations and curve fitting, and by evaluating the parameters of Rₘₐₓ, Chi2, and Tc.

[4] = target: T1, full-length isoform 2 ECD of human CD96 …; test: as above
Method: as §1, §2

[5] = target: T2, wild type full-length human TIGIT …; test: flow cytometry, blocking of CD155-Fc-PE binding to human TIGIT CHO cells, geomean of 3 experiments
Method: A 4× concentrated intermediate stock of each antibody was prepared in a microplate. Antibodies were serially diluted 1-to-4 in FACS buffer. […] Lastly, 25 μL of human TIGIT-CHO cells, prepared as described above, were added to each well. After a 30-minute incubation on ice, the cells were washed twice with cold FACS Buffer, and the cells were analyzed by flow cytometry (BD LSR Fortessa Flow Cytometer). The data were analyzed using the FlowJo software by sequentially gating on the FSC-A vs. SSC-A and SSC-H vs. SSC-A. Mean fluorescence intensity (MFI) values for PE were calculated, and the data were plotted by GraphPad Prism software and analyzed as described above.

EC50 [1]	EC50 [2]	Kd [3]	koff [3]	kon [3]	Kd [4]	koff [4]	kon [4]	IC50 [5]	Binder
0.165 mg/L	0.189 mg/L	0.00478 µM	0.00132 s⁻¹	277000 M⁻¹ s⁻¹	0.079 µM	0.00125 s⁻¹	15800 M⁻¹ s⁻¹	–	B1
0.258 mg/L	0.148 mg/L	0.00429 µM	0.00126 s⁻¹	294000 M⁻¹ s⁻¹	0.0196 µM	0.00116 s⁻¹	59200 M⁻¹ s⁻¹	–	B2
–	–	–	–	–	–	–	–	0.0084 mg/L	B3
